Our source for the RLU values is US20220332795A1.

Changes are numbered by the printed parent chain.

The target in the assay is human serum albumin (human) (UniProt P02768). Put plainly: solution ELISA screen (luminescence).
human serum albumin (human), sequence (P02768 25-609 limits assumed): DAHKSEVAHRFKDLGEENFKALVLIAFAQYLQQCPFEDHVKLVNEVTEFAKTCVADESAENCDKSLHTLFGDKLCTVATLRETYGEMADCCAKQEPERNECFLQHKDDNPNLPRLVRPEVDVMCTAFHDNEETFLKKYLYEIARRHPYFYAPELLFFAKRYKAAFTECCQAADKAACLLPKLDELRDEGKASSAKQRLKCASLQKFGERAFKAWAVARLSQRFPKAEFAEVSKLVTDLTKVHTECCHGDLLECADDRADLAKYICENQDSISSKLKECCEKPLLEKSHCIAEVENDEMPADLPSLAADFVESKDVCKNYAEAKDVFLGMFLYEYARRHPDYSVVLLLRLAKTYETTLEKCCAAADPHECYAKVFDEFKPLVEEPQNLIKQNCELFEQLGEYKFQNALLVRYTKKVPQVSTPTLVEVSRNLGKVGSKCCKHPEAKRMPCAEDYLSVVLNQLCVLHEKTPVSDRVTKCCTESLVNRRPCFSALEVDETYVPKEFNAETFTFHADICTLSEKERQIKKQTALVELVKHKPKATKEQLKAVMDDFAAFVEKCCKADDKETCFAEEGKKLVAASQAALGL

B1: SEQ ID NO 221 (designed binder, not shown: small tags and cut ends)
chain: MLPAPKNLVVSRVTEDSARLSWTAPDAAFDSFFIGYLEPQPPGEAIFLDVPGSERSYDLTGLKPGTEYNVTIQGVKGGFPSPLTAFFTT
With B1, the RLU stood at 59000 RLU.

B2: SEQ ID NO 232 (designed binder, not shown: small tags and cut ends)
chain: MLPAPKNLVVSRVTEDSARLSWTAPDAAFDSFFIGYLEPQPPGEAIYLDVPGSERSYDLTGLKPGTEYNVTIQGVKGGFPSTFTT
In turn, B2 gave an RLU of 75400 RLU.

B3: SEQ ID NO 213 (designed binder, not shown: small tags and cut ends)
chain: MLPAPKNLVVSRVTEDSARLSWTAPDAAFDSFYIAYAEPRPDGEAILLGVPGSERSYDLTGLKPGTEYSVLIHGVKGGLLSSPLFTT
B3: the RLU amounted to 70300 RLU.

B4: SEQ ID NO 205 (designed binder, not shown: small tags and cut ends)
chain: MLPAPKNLVVSRVTEDSARLSWTAPDAAFDSFFIGYLEPQPPGEAILLGVPGSERSYDLTGLKPGTEYNVTIQGVKGGFPSMPLHPLVALFTT
Turning to B4, the RLU stood at 155000 RLU.

B5: SEQ ID NO 208 (designed binder, not shown: small tags and cut ends)
chain: MLPAPKNLVVSRVTEDSARLSWTAPDAAFDSFFIGYLEPQPPGEAIVLAVPGSERSYDLTGLKPGTEYNVTIQGVKGGFPSYPLVAAFTT
Take B5: the RLU is 16400 RLU.

B6: SEQ ID NO 210 (designed binder, not shown: small tags and cut ends)
chain: B5 chain with V47N, A49Q, Y82F, V85S, A87V
Molecule B6 displayed an RLU of 48600 RLU.

B7: SEQ ID NO 231 (designed binder, not shown: small tags and cut ends)
chain: B5 chain with V47H, A49Y, Y82D, V85D, A87V
B7 registered an RLU of 20600 RLU.

B8: SEQ ID NO 222 (designed binder, not shown: small tags and cut ends)
chain: B5 chain with A49D, Y82H, V85A
B8 registered an RLU of 15600 RLU.

B9: SEQ ID NO 235 (designed binder, not shown: small tags and cut ends)
chain: B5 chain with V47Q, A49T, Y82L, V85S, A87D
B9 yielded an RLU of 23800 RLU.

B10: SEQ ID NO 223 (designed binder, not shown: small tags and cut ends)
chain: B5 chain with V47G, Y82V, V85Q, A87N
On to B10, for which the RLU was 18300 RLU.

B11: SEQ ID NO 206 (designed binder, not shown: small tags and cut ends)
chain: MLPAPKNLVVSRVTEDSARLSWTAPDAAFDSFYIAYAEPRPDGEAIGLDVPGSERSYDLTGLKPGTEYSVLIHGVKGGLLSSPLSAIFTT
B11 showed an RLU of 14000 RLU.

B12: SEQ ID NO 236 (designed binder, not shown: small tags and cut ends)
chain: B11 chain with G47L, D49Q, S85D, I87E
Turning to B12, the RLU stood at 15600 RLU.

B13: SEQ ID NO 214 (designed binder, not shown: small tags and cut ends)
chain: B11 chain with D49Q, S85C, I87E
On to B13, for which the RLU is 30200 RLU.

B14: SEQ ID NO 209 (designed binder, not shown: small tags and cut ends)
chain: B11 chain with G47L, D49Q, E54C, S85T
As to B14, the RLU was found to be 17800 RLU.

B15: SEQ ID NO 215 (designed binder, not shown: small tags and cut ends)
chain: B11 chain with G47V, D49W, S85I, I87E
In turn, B15 came in with an RLU of 22400 RLU.

B16: SEQ ID NO 212 (designed binder, not shown: small tags and cut ends)
chain: B11 chain with G47W, D49A, S85H, I87Q
In turn, B16 yielded an RLU of 17400 RLU.

B17: SEQ ID NO 239 (designed binder, not shown: small tags and cut ends)
chain: B11 chain with G47Q, D49V, S85Y
Turning to B17, the RLU is 21100 RLU.

B18: SEQ ID NO 224 (designed binder, not shown: small tags and cut ends)
chain: B11 chain with G47L, D49R, S85V, I87E
Take B18: the RLU was 26200 RLU.

B19: SEQ ID NO 207 (designed binder, not shown: small tags and cut ends)
chain: B11 chain with G47H, D49S, S85A, I87Y
With B19, the RLU was 121000 RLU.

B20: SEQ ID NO 225 (designed binder, not shown: small tags and cut ends)
chain: B11 chain with G47L, D49Q, I87S
In turn, B20 gave an RLU of 17000 RLU.

B21: SEQ ID NO 218 (designed binder, not shown: small tags and cut ends)
chain: B11 chain with G47H, D49V
The molecule B21 had an RLU of 14100 RLU.

B22: SEQ ID NO 228 (designed binder, not shown: small tags and cut ends)
chain: B11 chain with G47V, D49R, S85A, I87S
B22 showed an RLU of 29600 RLU.

B23: SEQ ID NO 227 (designed binder, not shown: small tags and cut ends)
chain: B11 chain with D49R
The molecule B23 showed an RLU of 28200 RLU.

B24: SEQ ID NO 211 (designed binder, not shown: small tags and cut ends)
chain: B11 chain with G47Q, D49H, S85V
The molecule B24 had an RLU of 13000 RLU.

B25: SEQ ID NO 230 (designed binder, not shown: small tags and cut ends)
chain: B11 chain with G47W, D49L, S85V, I87F
In the case of B25, the RLU turned out to be 32000 RLU.

B26: SEQ ID NO 217 (designed binder, not shown: small tags and cut ends)
chain: B11 chain with G47I, D49E, S85R, I87V
As for B26, the RLU is 16200 RLU.

B27: SEQ ID NO 226 (designed binder, not shown: small tags and cut ends)
chain: B11 chain with D49H, S85T, I87S
The molecule B27 showed an RLU of 16000 RLU.

B28: SEQ ID NO 233 (designed binder, not shown: small tags and cut ends)
chain: B11 chain with G47Q, D49F, S85K, I87Y
B28 returned an RLU of 22000 RLU.

B29: SEQ ID NO 234 (designed binder, not shown: small tags and cut ends)
chain: B11 chain with G47V, D49V
As for B29, the RLU was 20800 RLU.

B30: SEQ ID NO 237 (designed binder, not shown: small tags and cut ends)
chain: B11 chain with G47V, D49A, S85Y, I87S
Consider B30, for which the RLU was 27700 RLU.

B31: SEQ ID NO 240 (designed binder, not shown: small tags and cut ends)
chain: B11 chain with G47S, D49S, S85H, I87K
As to B31, the RLU was 18000 RLU.

B32: SEQ ID NO 219 (designed binder, not shown: small tags and cut ends)
chain: B11 chain with G47S, D49K, S85E
Molecule B32 had an RLU of 11800 RLU.

B33: SEQ ID NO 229 (designed binder, not shown: small tags and cut ends)
chain: B11 chain with G47Q, D49L, S85V, I87H
B33 came in with an RLU of 15400 RLU.

B34: SEQ ID NO 216 (designed binder, not shown: small tags and cut ends)
chain: MLPAPKNLVVSRVTEDSARLSWTAPDAAFDSFYIAYAEPRPDGEAISLSVPGSERSYDLTGLKPGTEYSVLIHGVKGGLLSSPPKFTT
Molecule B34 showed an RLU of 192000 RLU.

B35: SEQ ID NO 238 (designed binder, not shown: small tags and cut ends)
chain: B34 chain with A24T, S47R, S49Q, P84L, K85G
For B35, the RLU was 99000 RLU.
